According to paper PMC12753876:

Assays:
[1] = target: HsFA3 E188R in pGBKT7 (BD) (UniProt Q8GYY1); experiment: yeast two-hybrid (beta-galactosidase, Miller units); details: n=3; parent: est. 270; read off a plot
[2] = target: HsFA3 E188R in pGBKT7 (BD) (Arabidopsis thaliana) (UniProt Q8GYY1); experiment: two-hybrid; CRY1 as prey in pGADT7 (AD), HsF as bait in pGBKT7 (BD), co-transformed into yeast Y187; liquid beta-galactosidase assay with CPRG, Miller units; not detected (ND) if OD578 <0.01 after 3 h of color development
Chain of HsFA3 E188R in pGBKT7 (BD) (Arabidopsis thaliana) (Q8GYY1 whole entry E188R): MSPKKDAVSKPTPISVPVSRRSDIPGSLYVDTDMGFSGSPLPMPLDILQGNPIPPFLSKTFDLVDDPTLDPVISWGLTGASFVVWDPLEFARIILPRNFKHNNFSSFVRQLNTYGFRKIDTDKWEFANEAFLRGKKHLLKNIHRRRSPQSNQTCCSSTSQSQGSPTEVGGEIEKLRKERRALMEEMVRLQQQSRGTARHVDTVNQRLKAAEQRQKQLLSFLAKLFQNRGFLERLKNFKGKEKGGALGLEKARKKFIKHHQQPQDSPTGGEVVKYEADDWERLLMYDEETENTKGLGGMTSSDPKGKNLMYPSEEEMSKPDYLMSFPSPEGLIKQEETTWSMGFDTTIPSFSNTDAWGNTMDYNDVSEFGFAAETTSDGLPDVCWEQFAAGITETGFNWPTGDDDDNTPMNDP

[3] = target: HsFA1e^R126E in pGBKT7 (BD) (Arabidopsis thaliana) (UniProt Q9SCW5); experiment: as above
Chain of HsFA1e^R126E in pGBKT7 (BD) (Arabidopsis thaliana) (Q9SCW5 whole entry, stated change not applied): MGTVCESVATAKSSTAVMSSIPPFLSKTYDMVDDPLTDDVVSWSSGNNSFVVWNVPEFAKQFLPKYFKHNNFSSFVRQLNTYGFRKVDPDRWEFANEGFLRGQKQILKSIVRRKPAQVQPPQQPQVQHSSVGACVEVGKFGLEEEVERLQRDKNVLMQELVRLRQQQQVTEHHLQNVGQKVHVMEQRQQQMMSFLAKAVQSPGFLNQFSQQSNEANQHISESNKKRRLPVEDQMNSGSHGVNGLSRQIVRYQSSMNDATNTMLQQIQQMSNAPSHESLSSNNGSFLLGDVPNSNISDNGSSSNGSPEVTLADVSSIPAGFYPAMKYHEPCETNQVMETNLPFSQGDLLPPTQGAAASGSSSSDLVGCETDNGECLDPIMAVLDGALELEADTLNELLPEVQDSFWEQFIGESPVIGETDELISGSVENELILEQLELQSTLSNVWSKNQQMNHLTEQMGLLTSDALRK

Chain of HsFA3 E188R in pGBKT7 (BD) (Q8GYY1 whole entry E188R): as the sequence (Q8GYY1 whole entry E188R) above
Chain of CRY1^(PHR WT) in pGADT7 (AD) (Q43125 1-508): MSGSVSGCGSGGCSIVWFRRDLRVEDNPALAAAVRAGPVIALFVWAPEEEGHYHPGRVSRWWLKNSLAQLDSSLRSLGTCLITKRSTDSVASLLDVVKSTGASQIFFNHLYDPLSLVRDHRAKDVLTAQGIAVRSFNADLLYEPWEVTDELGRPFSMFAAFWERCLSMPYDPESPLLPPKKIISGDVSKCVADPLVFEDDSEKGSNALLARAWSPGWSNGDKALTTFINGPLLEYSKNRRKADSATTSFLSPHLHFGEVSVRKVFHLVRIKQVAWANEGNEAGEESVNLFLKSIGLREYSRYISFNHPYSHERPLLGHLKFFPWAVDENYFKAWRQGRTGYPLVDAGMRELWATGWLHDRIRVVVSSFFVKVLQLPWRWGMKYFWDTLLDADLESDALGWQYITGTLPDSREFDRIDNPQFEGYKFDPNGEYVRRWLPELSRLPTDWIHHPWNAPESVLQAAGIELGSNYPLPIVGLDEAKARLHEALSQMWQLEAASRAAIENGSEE

Row | response [1] | reduction of Y2H interaction relative to WT [2] | fold increase of Y2H interaction relative to WT [3] | Substance
1 | 90 Miller Units | – | – | m1; m17 CRY1:R211E; HsFA3:E188R
2 | – | 0.33 | 40 fold | CRY1^(PHR WT) in pGADT7 (AD) (from UniProt Q43125 1-508) (domain or fragment)
3 | 170 Miller Units | – | – | m1; m17 CRY1:R435E; HsFA3:E188R
4 | 300 Miller Units | – | – | m1; m17 CRY1:R211E; CRY1:R435E; HsFA3:E188R
